Source: article PMC2794548, “Real-Time Imaging and Quantification of Amyloid-β Peptide Aggregates by Novel Quantum-Dot Nanoprobes” (PLoS ONE, 2009)

Legend:
[1] = Kinetic analysis of Aβ40 and Aβ42 aggregations by SDS-PAGE; format: physicochemical, Human; conditions: 50 µM peptide in PBS without SDS, 37°C
Protocol: These Aβ solutions were diluted at 50 µM in PBS with or without 1 mM SDS, and 5 µl of aliquots were incubated for various time periods at 37°C. The samples were mixed with sample buffer (final concentration: 50 mM Tris-HCl (pH 6.8), 2% SDS, 0.1% bromophenol blue, and 10% glycerol) and immediately electrophoresed using 16.5% Tris-Tricine gels or 16% Tris-Glycine gels. These gels were stained with Coomassie brilliant blue.
After the incubation, these samples were electrophoresed using 16.5% Tris-Tricine (a and c) and 16% Tris-Glycine gels (b and d). […] [1] Schagger H (2006) Tricine-SDS-PAGE. Nat Protoc 1: 16–22. Laemmli UK (1970) Cleavage of structural proteins during the assembly of the head of bacteriophage T4. Nature 227: 680–685. (1.27 MB TIF) Click here for additional data file.

Aβ42 = Aβ42 (Homo sapiens, UniProt P05067); assay: Imaging of fibril formation: coaggregation of QDAβ with intact Aβ42, wide-field fluorescence microscopy; format: physicochemical; conditions: 0.1% QDAβ(6)-containing 50 µM Aβ42, 1 day on ice
Aβ42, sequence (P05067 672-713 limits assumed): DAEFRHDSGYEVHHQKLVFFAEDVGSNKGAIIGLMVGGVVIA
Source text: (b) Fluorescence intensities of the aggregates in (a). Fluorescence intensities measured from 20 randomly selected fields (100×100 pixel: 8.6×8.6 μm) containing the aggregates are shown as relative % intensity against QDAβ(6) group. *** denotes P<0.001 for QDAβ (6)- versus QDAβ (1)- or QDAβ (0)-samples and ## denotes 0.001<P<0.01 for QDAβ (1)- versus QDAβ (0) samples. Error bars indicate SD (n = 20). […], spread between glass slides and cover slips, and observed by regular microscopy using a 100x objective lens with QD filter set (left micrograph) and […] (right three micrographs). […] The right three micrographs are magnified and brightened micrographs. The top right micrograph is the boxed area in the left micrograph. […] To remove any aggregates, the mixtures were centrifuged at 10,000×g for 1 min at 4°C. The mixtures (50 μl) were put in microcentrifuge tubes or 96-well glass bottom plates (MatTek). […] Supplementary file pone.0008492.s006.tif: Figure S4 Dose- and time-dependent coaggregation. […] (7.12 MB TIF) Click here for additional data file. Supplementary file pone.0008492.s007.tif: Figure S5 Temperature-dependent Aβ aggregation. […] (1.67 MB TIF) Click here for additional data file.

[2] = 4D imaging of Aβ aggregation by swept-field confocal microscopy; format: physicochemical, Human
Protocol: (a) 4D imaging of Aβ aggregation. […] (b) Time-course of Aβ aggregation. The volumes of Aβ aggregates measured from three 4D experiments (red, blue, and green). The total volume of the observed space is 1.9×10^6 µm^3 (138×138×100 µm).
To remove any aggregates, the mixtures were centrifuged at 10,000×g for 1 min at 4°C. The mixtures (50 µl) were put in microcentrifuge tubes or 96-well glass bottom plates (MatTek). The samples in microcentrifuge tubes were incubated for various time periods at 37°C in an air incubator, and observed by wide-field fluorescence microscopy or electron microscopy. The samples in 96-well glass bottom plates were incubated at 37°C in 5% CO2 in a culture chamber (LiveCell™, Pathology Devices), and directly observed by wide-field fluorescence microscopy or swept-field laser-scanning confocal microscopy [QDAβ: Excitation: 488 nm at 15% power; Emission filter: Chroma Quad Filter (#C68208) for FITC].
QD was excited by an argon laser, and Lysotracker and Mitotracker were excited by an argon/krypton laser.

[3] = 10–35 µM Aβ42 in phosphate buffer (pH 7.5 or pH 7.4); cited from earlier work
[4] = 0.1% QDAβ(6)-containing 100 µM Aβ42, 37°C, imaged every 30 min over 20 h, three 4D experiments

| Substance | oligomer formation after 5 days ([1]; SDS-PAGE (Fig. S1c, d)) | time to formation of trimeric and tetrameric species from the start of incubation ([1]; SDS-PAGE, Coomassie (Fig. S1a)) | aggregation after incubation on ice (Aβ42) | lag time of aggregation [2, 4] | time at which aggregation reached a plateau [2, 4] | density of stacked-Aβ aggregates on the glass bottom in a steady state ([2]; estimated from 4D imaging data, 100 µM Aβ42 with 0.1% QDAβ(6)) | lag time of ThT binding [3] | time at which ThT binding reached a plateau [3] |
| --- | --- | --- | --- | --- | --- | --- | --- | --- |
| Aβ40: Human amyloid peptide Aβ40 (Biosource) | did not form oligomers | – | – | – | – | – | – | – |
| Aβ42: Human amyloid peptide Aβ42 (Biosource) | – | ≤ 0.3 h | did not observe aggregation | approximately 1.5 h | around 12 h | 32 ± 6 mg/mL | several minutes | 1 to 2 h |
